These results are taken from patent US20200102389A1 (Hoffmann-La Roche, published 2020).

Assay [1] deals with T1, human HLA-G expressed on cells (JEG3 naturally; SKOV3 HLA-G+ and PA-TU-8902 HLA-G+ transfectants) (human, UniProt P17693 25-338).
T1 construct: whole, on cells; also called cell surface HLA-G; HLA-G on JEG3 cells
The assay is described as follows: flow cytometry, JEG3 cells pre-incubated with antibody, competitor ILT2-Fc chimera. The protocol:
For analysis, JEG3 cells (ATCC HTB36) were stained with ILT2-Fc fusion proteins (control=no inhibition) with or without pre-incubation with different anti-HLA-G antibodies. For the pre-incubation with anti-HLA-G antibodies 25 μl/well of the cell suspension was transferred into a polypropylene 96-Well V-bottom plate and prechilled in the at 4° C. for 10 min. Anti HLA-G antibodies or reference antibodies (G233, MEM-G/9 or 87G) were diluted in staining buffer to a 2-fold concentration of 20 μg/ml and 25 μl/well of the antibody solution was added to the prepared cells and incubated for 1 h at 5° C. Cells were washed twice with 200 μl/well staining buffer with centrifugation at 300 g for 3 min and finally resuspended in 25 μl/well staining buffer.
The detection of human ILT2-Fc Chimera protein (RD #2017-T2-050) to a) JEG3 cells pre-incubated anti HLA-G mAb or b) untreated JEG3 cells as reference was determined as follows: Briefly, the ILT2-Fc or control human IgG (Jackson-Immuno-Research #009-000-003) were diluted in staining buffer to a 2-fold concentration of 20 μg/ml (ILT2) and 25 μl/well of the ILT2-Fc protein solution was added to the prepared cells and incubated for 2 h at 5° C. Cells were again washed twice with 200 μl/well staining buffer the human ILT2-Fcprotein was detected with fluorescent labeled anti human IgG Fc-gamma specific antibody (F(ab′)₂ Fragment Goat Anti-Human IgG, Fcy fragment specific-FITC, Jackson-Immuno-Research #109-096-008) at a dilution of 10 μg/ml in staining buffer. Cell pellets were resuspended in 50 μl/well detection antibody. After a 1-hour incubation at 5° C. cells were washed twice with staining buffer, resuspended in 70 μl and measured at a FACS Canto II to determine ILT2 binding to JEG 3 cells.
(In flow cytometry, cells or beads pass a laser one at a time.)

Assay [2] has as its target T2, recombinant soluble human HLA-G β2M MHC class I complex, dimer (human).
T2 construct: also called HLA-G Dimer; fraction A9
The assay is described as follows: blocking ELISA, Fc tagged ILT2 coated, 100 nM antibody, soluble HLA-G dimer. The protocol: (§1) The ELISA was set up by coating the Fc tagged ILT2 and ILT4 respectively to Maxisorp microtiter plates. After incubation and washing steps, the respective antibodies were added at a concentration of 100nM. Soluble His tagged monomeric, dimeric or trimeric HLA-G was added to the wells. After incubation and washing steps, detection of bound receptor was carried out by anti-His-antibody-POD conjugates.
For orientation: In an ELISA, binding on a coated surface is turned into a signal by an enzyme label.

Assay [3] deals with T3, recombinant soluble human HLA-G β2M MHC class I complex, monomer (human).
T3 construct: His tagged; also called HLA-G-0003
The assay can be described thus: competition ELISA, immobilised biotinylated wt HLA-G, competitor c-myc ILT4. The protocol:
The above table summarizes the blocking of interaction between rec. HLA-G proteins (monomer and oligomers) to its receptors ILT2 and ILT4 as assessed by ELISA.
(§2) The ELISA was set up by coating the biotinylated antigen wt HLA-G to strepdavidin plates. After incubation and washing steps, the respective antibodies were bound in a concentration range from 8-0 μg in 1:3 dilution steps. C-myc tagged ILT-2 or -4 receptor was added to the HLA-G-antibody complexes. After incubation and washing steps, detection of bound receptor was carried out by anti-cmyc-antibody-POD conjugates. IC50 values were determined from the resulting inhibition curves at the antibody concentrations generating the half-maximal inhibition. In case of the non-biotinylated HLA-G dimer and trimer antigens, immobilization was carried out by random coating on assay plates.

The target in assay [4] is T3, recombinant soluble human HLA-G β2M MHC …. The assay is described as follows: blocking ELISA, Fc tagged ILT4 coated, 100 nM antibody, soluble HLA-G monomer. The protocol:
as §1

For assay [5], the target named is T4, recombinant soluble human HLA-G β2M MHC class I complex, trimer (human).
T4 construct: also called HLA-G Trimer; fraction A8
The assay is described as follows: competition ELISA, immobilised HLA-G trimer, antibody titrated, competitor c-myc ILT2. The protocol: as §2

Assay [6] addresses T2, recombinant soluble human HLA-G β2M MHC …. The assay is described as follows: competition ELISA, immobilised HLA-G dimer, antibody titrated, competitor c-myc ILT2. The protocol:
as §2

For assay [7], the target named is T3, recombinant soluble human HLA-G β2M MHC …. The assay is described as follows: SPR (Biacore T200), antibody captured via anti-Fc, HLA-G complex injected, 25 C, 1:1 fit. The protocol: Binding kinetics of anti-HLA-G antibodies to human HLA-G, human HLA-G degrafted and human HLA-A2 were investigated by surface plasmon resonance using a BIACORE T200 instrument (GE Healthcare). All experiments were performed at 25° C. using PBS Buffer (pH 7.4+0.05% Tween20) as running buffer and PBS Buffer (+0.1% BSA) as dilution buffer. Anti-human Fc (JIR009-005-098, Jackson) or anti-rat Fc (JIR112-005-071, Jackson) or anti-Mouse Fc (JIR115-005-071, Jackson) antibodies were immobilized on a Series S CM5 Sensor Chip (GE Healthcare) at pH 5.0 by using an amine coupling kit supplied by GE Healthcare. Anti-HLA-G antibodies were captured on the surface leading to a capturing response of 50-200 RU. HLA-G molecules were injected for 180 s at 30 μl/min with concentrations from 2.5 up to 800 nM (2×1:2 and 4×1:3 dilution series) onto the surface (association phase). The dissociation phase was monitored for 300-600 sec by washing with running buffer. […] Bulk refractive index differences were corrected by subtracting the response obtained from a mock surface. Blank injections were subtracted (double referencing). The derived curves were fitted to a 1:1 Langmuir binding model using the BIAevaluation software.
The above table summarizes the antibody affinities and t1/2 values against wt and degrafted HLA-G as assessed by Surface plasmon resonance (Biacore) analysis. Binding kinetics of anti-HLA-G antibodies to human HLA-G, human HLA-G degrafted and human HLA-A2 were investigated by surface plasmon resonance using a BIACORE T200 instrument (GE Healthcare). All experiments were performed at 25° C. using PBS Buffer (pH 7.4+0.05% Tween20) as running buffer and PBS Buffer (+0.1% BSA) as dilution buffer. Anti-human Fc (JIR009-005-098, Jackson) or anti-rat Fc (JIR112-005-071, Jackson) or anti-Mouse Fc (JIR115-005-071, Jackson) antibodies were immobilized on a Series S CM5 Sensor Chip (GE

B1: HLA-G-0037 (antibody, V domains shown)
VH: QVQLKESGPGLVQPSQTLSLTCSVSGFSLTTYSVSWVRQPPGKGLEWIGAIWSGGSTDYNSALKSRLRISRDTSKSQVLLKMNSLQTEDRAMYFCVRMNNKFGYWYFDLWGPGTMVTVSS
VL: DTVLTQSPTLAVSPGEKITISCRASETVSTMLHWYQQKPGQQPKLLISLASHLESGVPARFTGSGSGTDFTLTIDPVEADDTATYYCQQTWNDPLTFGSGTKLEIK
Turning to B1, in assay [1], the “Inhibition of ILT2 binding to Jeg3 cells” value was 96.5%. The “% inh. ILT2” value in assay [2] was 96%. For the same molecule, in assay [3], the “% inh. ILT4” value came out at 41%. Besides, the “% inh. ILT4” value in assay [4] is 1%. The 50% inhibitory concentration (IC50) in assay [5] was determined as 0.1 nM. For the same molecule, the IC50 in assay [6] worked out at 0.8 nM. In assay [7], the Kd was 6.75 nM, the koff came to 0.000882 s⁻¹, the kon was determined as 131000 M⁻¹ s⁻¹ and the “t ½” value was found to be 13 min.

B2: HLA-G-0032 (antibody, V domains shown)
VH: QVQLQQSGAELVKPGSSVKISCKASGYSFPSYDMHWIKQQPGNGLEWIGWIYPGNGNTKYNQKFNGKASLTADKSSSTAYMQLSSLTSEDSAVYFCAKPTVATRYNWFAYWGQGTLVTVSS
VL: QIVLTQSPALMSASPGEKVTMTCSASSSVNYMHWYQQKPRSSPKPWIYLTSNLASGVPARFSGSGSGTSYSLTISTMEAEDAATYYCQQWSSNLPITFGSGTKLEIK
On to B2, for which the “Inhibition of ILT2 binding to Jeg3 cells” value in assay [1] worked out at 98.1%. The “% inh. ILT2” value in assay [2] was 95%. Moreover, the “% inh. ILT4” value in assay [3] stood at 43%. In assay [4], the “% inh. ILT4” value came out at 12%. Moreover, the half-inhibitory concentration (IC50) in assay [5] turned out to be 0.4 nM. Besides, the IC50 in assay [6] was found to be 1.3 nM. For the same molecule, in assay [7], the Kd was 14.9 nM, the koff is 0.00076 s⁻¹, the kon came out at 51200 M⁻¹ s⁻¹ and the “t ½” value turned out to be 15 min.

B3: HLA-G-0033 (antibody, V domains shown)
VH: EVQLVETGGGLVQSGRSLKLSCVASGFTFNDYWMTWTRQAPGKGLEWVASITNSGGRTYYLDSVRGRFTISRDDAQNTLYLQMNSLRSEDTATYYCTKERIYLTAYWFFDFWGPGTMVTVSS
VL: DTILTQSPALAVSPGERVTISCRASESVSTLIHWYQQKPGQRPKLLIYLASHLESGVPARFSGSGSGTDFTLTIDPVEADDTATYYCQQSWNEPRTFGGGTKLELK
As to B3, the “Inhibition of ILT2 binding to Jeg3 cells” value in assay [1] is -9.3%. The “% inh. ILT2” value in assay [2] was 95%. Further, the “% inh. ILT4” value in assay [3] came out at 44.6%. Further, in assay [4], the “% inh. ILT4” value is 14%. Besides, the half-inhibitory concentration (IC50) in assay [5] is 0.5 nM. In assay [6], the concentration for half-maximal inhibition (IC50) came to 1.2 nM. Also, in assay [7], the Kd was found to be 31.5 nM, the koff turned out to be 0.00165 s⁻¹, the kon stood at 52300 M⁻¹ s⁻¹ and the “t ½” value was determined as 7 min.

Broadly, the IC50 is the midpoint of a concentration-inhibition curve. In general, Kd refers to the free concentration of one partner at which half of the binding sites on the other are occupied at equilibrium, for simple one-to-one binding. The koff is a measure of how fast the partners let go of each other. One may read the kon as a measure of how fast the partners come together.
